# ± gives the standard deviation of the averaged measurements.
# What was measured:
# Saccharomyces cerevisiae [1] = assay: protein stability index of tFT-peptide fusion in wild type (PSI (0-1 scale)); higher = more stable (slower turnover); conditions: genetic background: wild type
# Saccharomyces cerevisiae [2] = assay: protein stability index of tFT-peptide fusion in deletion strain of DOA10 (PSI (0-1 scale)); higher = more stable (slower turnover)
# Protocol: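 MPS profiling in S. cerevisiae of two library types built from selected 12-aa C-degron peptides (IN1, IN2, LN1, LN3, VN2, R1-R5, W1-W3, Atg1 and Rpa12 C-termini): saturation mutagenesis libraries and C-terminal +1 capping libraries (13 aa). Each peptide is fused to the C-terminus of a sfGFP-mCherry timer, after a GGGS linker. Cells are FACS-sorted into 8 mCherry/sfGFP bins and sequenced. PSI runs from 0 (unstable) to 1 (stable), measured once in wild type and in the das1Δ or doa10Δ background.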
# Saccharomyces cerevisiae [3] = assay: protein stability index of tFT-peptide fusion (C-terminal peptide) (PSI (0-1 scale)); higher = more stable (slower turnover)
# Protocol: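 MPS profiling in S. cerevisiae of the tFT-X12 degron library: putative degron peptides plus stable controls, 12 aa, fused to the C-terminus of a sfGFP-mCherry timer. Cells are FACS-sorted into 8 mCherry/sfGFP bins and deep-sequenced. PSI runs from 0 (unstable) to 1 (stable). Backgrounds are wild type, das1Δ and doa10Δ at 30 °C, and wild type, das1Δ, cdc34-1 and cdc53-1 at 37 °C; 2-3 technical replicates each.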
# Saccharomyces cerevisiae [4] = assay: as above; conditions: genetic background: wild type; temperature: 30 C
# 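For protein stability index of tFT-peptide fusion (C-terminal peptide) in this document: PSI is a weighted mean of sequencing reads over stability bins, variants kept only with over 10 reads, mCherry proximal and sfGFP distal, peptide attached via GGGS linker.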
# 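For protein stability index of tFT-peptide fusion in deletion strain of DOA10 in this document: PSI per variant is the weighted mean of its sequencing read distribution over the sorted stability bins, counting only variants with over 10 reads summed across bins.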
# 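For protein stability index of tFT-peptide fusion in wild type in this document: PSI derived as read-weighted mean over the 8 sorting bins, only variants exceeding 10 total reads kept, mCherry placed adjacent to the peptide and sfGFP distal.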
Sequence,protein stability index (Saccharomyces cerevisiae [1]),protein stability index (Saccharomyces cerevisiae [2]),also measured
CLVSLQILLFFR,0.164,0.264,–
CLVSLVILLFFR,0.258,0.34,–
CLVSMPILLFFR,0.0734,0.601,–
CLVSYPILLFFR,0.0543,0.603,–
CVTRLDAIYFRI,0.194,0.71,–
DITLPMCPLLLR,0.39,0.655,–
FLYMCSVGCWFR,0.351,0.563,–
GLCMCSVGCWFR,0.256,0.608,–
GLNMCSVGCWFR,0.264,0.673,–
GLYMCFVGCWFR,0.233,0.402,–
GLYMCSEGCWFR,0.619,0.706,–
GLYMCSRGCWFR,0.436,0.677,–
GLYMCSTGCWFR,0.37,0.684,–
GLYMCSVGCHFR,0.621,0.663,–
GLYMCSVGCMFR,0.524,0.636,–
GLYMCSVGCWFL,0.506,0.598,–
GLYMCSVGCWFRK,0.435,0.648,–
GLYMCSVGCWFRT,0.227,0.554,–
GLYMCSVGCWIR,0.179,0.402,–
GLYMCSVGCWLR,0.212,0.537,–
GLYMCSVGCWWR,0.355,0.634,–
GLYMCSVGKWFR,0.637,0.674,–
GLYMCSVRCWFR,0.382,0.442,–
GLYMCSVTCWFR,0.265,0.327,–

Sequence,protein stability index (Saccharomyces cerevisiae [1]),protein stability index (Saccharomyces cerevisiae [2]),also measured
GLYMDSVGCWFR,0.521,0.727,–
GLYMMSVGCWFR,0.26,0.604,–
GLYMVSVGCWFR,0.176,0.38,–
GLYMWSVGCWFR,0.278,0.601,–
GRYMCSVGCWFR,0.385,0.669,–
ISLRVLLPLYFR,0.286,0.588,–
KSLRVLLPLYFR,0.288,0.654,–
QITLPMCPLLLR,0.288,0.645,–
QVTRLDAIYFRI,0.346,0.693,–
RLVSLPILLFFR,0.0755,0.614,–
RPLRVLLPLYFR,0.355,0.666,–
RRTRLDAIYFRI,0.422,0.599,–
RSLRILLPLYFR,0.253,0.655,–
RSLRVDLPLYFR,0.203,0.69,–
RSLRVLEPLYFR,0.412,0.69,–
RSLRVLLPLDFR,0.666,0.723,–
RSLRVLLPLIFR,0.375,0.671,–
RSLRVLLPLYFR,0.289,0.66,"protein stability index (Saccharomyces cerevisiae [3]; genetic background: cdc34-1, temperature: 37 C): 0.082 ± 0.034; protein stability index (Saccharomyces cerevisiae [3]; genetic background: cdc53-1, temperature: 37 C): 0.0762 ± 0.025; protein stability index (Saccharomyces cerevisiae [3]; genetic background: das1 deletion, temperature: 30 C): 0.234 ± 0.029; protein stability index (Saccharomyces cerevisiae [3]; genetic background: das1 deletion, temperature: 37 C): 0.271 ± 0.004; protein stability index (Saccharomyces cerevisiae [3]; genetic background: doa10 deletion, temperature: 30 C): 0.66 ± 0.029; protein stability index (Saccharomyces cerevisiae [3]; genetic background: wild type, temperature: 30 C): 0.234 ± 0.022; protein stability index (Saccharomyces cerevisiae [3]; genetic background: wild type, temperature: 37 C): 0.266 ± 0.043; protein stability index (Saccharomyces cerevisiae [4]): 0.3478 ± 0.0013"
RSLRVLLPLYFRE,0.356,0.703,–
RSLRVLLPLYFRP,0.291,0.638,–
RSLRVLLPLYHR,0.626,0.682,–
RSLRVLLPLYLR,0.29,0.671,–
RSLRVLLPLYSR,0.609,0.642,–
RSLRVLLPTYFR,0.569,0.664,–

Sequence,protein stability index (Saccharomyces cerevisiae [1]),protein stability index (Saccharomyces cerevisiae [2]),also measured
RSLVVLLPLYFR,0.257,0.634,–
RVERLDAIYFRI,0.491,0.682,–
RVLRLDAIYFRI,0.376,0.666,–
RVSRLDAIYFRI,0.445,0.671,–
RVTFLDAIYFRI,0.438,0.621,–
RVTGLDAIYFRI,0.534,0.683,–
RVTRLDAIFFRI,0.364,0.712,–
RVTRLDAIPFRI,0.69,0.724,–
RVTRLDAIQFRI,0.658,0.698,–
RVTRLDAIYARI,0.684,0.724,–
RVTRLDAIYFLI,0.0749,0.119,–
RVTRLDAIYFRF,0.415,0.718,–
RVTRLDAIYFRIK,0.615,0.694,–
RVTRLDAIYFRIS,0.206,0.271,–
RVTRLDAIYFRIT,0.16,0.243,–
RVTRLDAIYFSI,0.629,0.713,–
RVTRLDAIYNRI,0.697,0.738,–
RVTRLDMIYFRI,0.236,0.658,–
RVTRLDQIYFRI,0.403,0.696,–
RVTRLDRIYFRI,0.243,0.566,–
RVTRMDAIYFRI,0.365,0.683,–
TLVSLPILLFFR,0.0732,0.613,–
VLYMCSVGCWFR,0.311,0.521,–
WITLPMCPLLLR,0.31,0.606,–
